Data on one molecule can be found in patent publication WO2018134681A1 (dated 2018).

One assay addresses T1, human TGF-β2 (human, UniProt P61812 21-414).
T1 chain: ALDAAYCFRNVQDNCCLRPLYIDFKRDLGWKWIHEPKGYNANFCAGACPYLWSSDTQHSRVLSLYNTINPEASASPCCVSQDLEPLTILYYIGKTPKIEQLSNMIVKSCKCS
Put plainly: SPR, Biacore T200, TGF-β homodimer immobilized on CM5 chip, Ab1 injected, 1:1 model.

The target of assay [1] is T2, murine TGF-β1 (identical in amino acid sequence to rat TGF-β1) (mouse, UniProt P04202 279-390).
T2 construct: mature; also called Murine and Rat TGF-βΙ; murine/rat TGF-β1
The description is as above.

For assay [2], the target named is T3, human TGF-β1 (human, UniProt P01137 279-390).
T3 construct: mature; also called TGF-βΙ; TGF-p1
The assay is described as above.

Assay [3] concerns the target T3, human TGF-β1. The assay can be described thus: cell-based or functional assay.

By Kd is commonly meant the free concentration of one partner at which half of the binding sites on the other are occupied at equilibrium, for simple one-to-one binding. High values mean weaker binding, low ones tighter binding.

T3 sequence (P01137 279-390 limits assumed): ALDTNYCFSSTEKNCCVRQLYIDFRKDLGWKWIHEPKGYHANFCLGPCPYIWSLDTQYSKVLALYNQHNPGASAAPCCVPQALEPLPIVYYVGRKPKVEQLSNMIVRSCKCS
T2 sequence (P04202 279-390 limits assumed): as the sequence (P01137 279-390 limits assumed) above, with A75S counted along it

B1: Ab1 (antibody, human IgG4 S228P, kappa)
heavy: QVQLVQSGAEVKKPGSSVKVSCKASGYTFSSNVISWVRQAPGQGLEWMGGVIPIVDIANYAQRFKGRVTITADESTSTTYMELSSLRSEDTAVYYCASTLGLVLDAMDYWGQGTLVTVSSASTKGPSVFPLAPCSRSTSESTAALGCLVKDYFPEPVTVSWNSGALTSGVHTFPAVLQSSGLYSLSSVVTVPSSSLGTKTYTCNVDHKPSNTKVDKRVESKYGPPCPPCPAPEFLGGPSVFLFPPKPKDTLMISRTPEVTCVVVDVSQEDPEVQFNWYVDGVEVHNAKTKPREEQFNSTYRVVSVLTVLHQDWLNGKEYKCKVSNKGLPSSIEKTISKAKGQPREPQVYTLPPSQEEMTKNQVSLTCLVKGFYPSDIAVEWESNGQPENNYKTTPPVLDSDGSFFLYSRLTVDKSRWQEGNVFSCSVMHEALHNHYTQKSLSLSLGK
light: ETVLTQSPGTLSLSPGERATLSCRASQSLGSSYLAWYQQKPGQAPRLLIYGASSRAPGIPDRFSGSGSGTDFTLTISRLEPEDFAVYYCQQYADSPITFGQGTRLEIKRTVAAPSVFIFPPSDEQLKSGTASVVCLLNNFYPREAKVQWKVDNALQSGNSQESVTEQDSKDSTYSLSSTLTLSKADYEKHKVYACEVTHQGLSSPVTKSFNRGEC
notes: also called anti-TGF-β antibody Ab1; pan-TGF-β antibody
Turning to B1, the results for the Kd (with human TGF-β2; in assay [1]; in the assay with human TGF-β1 [2]) were 3 nM, 2.8 nM and 1.48 nM, respectively. Besides, the “NFAT-driven luciferase activity, fold change against isotype control Ab” value with human TGF-β1 [3] was found to be 1.45 fold change. Moreover, in the assay with human TGF-β1 [3], the “NFAT-driven luciferase activity, fold change against no Ab control” value came to 1.45 fold change.
